Measured values reported in publication PMC11876737, “Side-by-Side Comparison of the In Vivo Performance of [^212Pb]Pb-DOTAMTATE and Other SSTR2-Targeting Compounds” (Journal of Nuclear Medicine, 2025).
Like-named read-outs stand apart in the source and are kept apart here. Positions of bridges follow the written chain, without caps; N, C: chain ends. Non-standard residues stand in square brackets, D forms with d. Residues, ends and D or L forms follow the SMILES beside them. *: point of attachment. DO3AM = NC(=O)CN1CCN(CC(N)=O)CCN(CC(=O)*)CCN(CC(N)=O)CC1; dPhe(4-NHCONH2) = NC(=O)Nc1ccc(C[C@@H](N)C(=O)O)cc1; Dihydroorotyl(S) = O=C1C[C@@H](C(=O)*)NC(=O)N1; Phe(4-Cl) = N[C@@H](Cc1ccc(Cl)cc1)C(=O)O; Phe(4-NH2) = Nc1ccc(C[C@H](N)C(=O)O)cc1

Assays:
[1] = tested on: SSTR2-overexpressing tumors, AR42J; assay: Biodistribution of ^212Pb SSTR2 analogs in AR42J tumor-bearing mice; type: in vivo, athymic nude female mice
Procedure: (§1) The background was automatically subtracted from the counts. A standard was also used for decay correction to time of injection or time of collection. The percent injected dose per gram (%ID/g) was calculated for each organ collected.  FIGURE 2. In vivo distribution of ^212Pb-radiolabeled SSTR2 analogs in athymic nude female mice carrying subcutaneous AR42J tumors. […] Tissue uptake is expressed as %ID/g ± SD decay corrected to time of injection (n = 4-5). In our study, we propose to use the integral of the time-activity curve, also known as the AUC, as a surrogate measure for estimating the absorbed dose. We calculated all SSTR2 analogs' AUC for kidneys and tumors including tumor-to-kidney ratios (T/K AUC ratio) (Figs. 3 and 4). We observed distinct AUC patterns and consequently distinct T/K AUC ratios across the different compounds.

[2] = as above; type: in vivo, athymic nude female mice; conditions: female, athymic nude, mouse, in vivo, iv, total radioactivity
Procedure: as §1

[3] = ^212Pb chelate RCY after 24 h at room temperature (instant thin-layer chromatography); type: physicochemical; conditions: 24 h at RT; 444 MBq/50 μg (27.5 nmol); triplicate ± SD
Procedure: The radioisotope-free compounds were diluted in metal-free water at needed concentrations and were stored at -20°C. ^212Pb was produced using ^224Ra generators (Orano Med LLC). Chelation was performed by incubating 27.5 nmol of peptide per 444 MBq of ^212Pb for 10 min at room temperature in 0.4 M ammonium acetate buffer, with a pH of 6.1. Radiochemical purity, assayed by instant thin-layer chromatography was used to confirm that ^212Pb chelation was greater than 95%. Radiolabeled peptides were spotted onto an instant thin-layer chromatography strip and allowed to migrate in a 22% citrate buffer. The instant thin-layer chromatography strip was then cut in half and counted using a calibrated Perkin Elmer Wizard2 2470 automatic γ-counter with an energy window of 185-250 keV considering ^212Pb major emitted γ-rays (238 keV). Samples were diluted to appropriate activity before injection in a buffer containing ascorbic acid, ethanol, and polysorbate-20. […], and PSC-PEG2-TATE (Fig. 1) were radiolabeled at a specific activity of 444 MBq per 50 μg (or 27.5 nmol) in a chelation buffer containing 5% ethanol, 20 mM ascorbic acid, and 0.02% polysorbate 80. The chelation of ^212Pb appears to occur more slowly with the PSC than with the DOTA and DOTAM chelators. […] The RCY remained above 95% at 24 h for all compounds.

SSTR2 = conditions: cited from earlier work
somatostatin receptor 3 = tested on: somatostatin receptor 3; set-up: method as in PMID 10774879; conditions: cited from earlier work
somatostatin receptor 5 = tested on: somatostatin receptor 5; set-up: method as in PMID 10774879; conditions: cited from earlier work
[4] = time-activity curve of %ID/g at 1, 4, 24 h, decay corrected to time of collection

Compound: C[C@@H](O)[C@@H]1NC(=O)[C@H](CCCCN)NC(=O)[C@@H](Cc2ccc(NC(N)=O)cc2)NC(=O)[C@H](Cc2ccc(NC(=O)[C@@H]3CC(=O)NC(=O)N3)cc2)NC(=O)[C@H](NC(=O)[C@H](Cc2ccc(Cl)cc2)NC(=O)CN2CCN(CC(N)=O)CCN(CC(N)=O)CCN(CC(N)=O)CC2)CSSC[C@@H](C(=O)N[C@H](Cc2ccc(O)cc2)C(N)=O)NC1=O [[^212Pb]Pb-DOTAM-JR11, DOTAM-p-Cl-Phe-cyclo(D-Cys-Aph(Hor)-D-Aph(Cbm)-Lys-Thr-Cys)D-Tyr-ONH2, metal not drawn] (DO3AM-[Phe(4-Cl)][dC][Phe(4-NH2)](Dihydroorotyl(S))[dPhe(4-NHCONH2)]KTC[dY]-NH2; disulfide 2-7)
- AR42J tumor AUC ([1]; mouse, in vivo): 363 ± 75
- Kidney AUC ([1]; mouse, in vivo): 274 ± 19
- tumor retention ([1]; mouse, in vivo): favorable tumor retention
- uptake in healthy tissues such as the stomach, the lungs, and spleen ([1]; mouse, in vivo): higher compared with uptake of the other SSTR2 analogs

Compound: C[C@@H](O)[C@H](NC(=O)[C@@H]1CSSC[C@H](NC(=O)[C@@H](Cc2ccccc2)NC(=O)CN2CCN(CC(N)=O)CCN(CC(N)=O)CCN(CC(N)=O)CC2)C(=O)N[C@@H](Cc2ccc(O)cc2)C(=O)N[C@H](Cc2c[nH]c3ccccc23)C(=O)N[C@@H](CCCCN)C(=O)N[C@@H]([C@@H](C)O)C(=O)N1)C(=O)O [[^212Pb]Pb-DOTAMTATE, metal not drawn]
- tissue uptake at 4 h [2]: ~50 %ID/g
- AR42J tumor AUC ([1]; mouse, in vivo): 583 ± 58
- Kidney AUC ([1]; mouse, in vivo): 186 ± 28
- uptake in healthy tissues such as the stomach, the lungs, and spleen ([1]; mouse, in vivo): higher compared with uptake of the other SSTR2 analogs

Compound: C[C@@H](O)[C@H](NC(=O)[C@@H]1CSSC[C@H](NC(=O)[C@@H](Cc2ccccc2)NC(=O)CN2CCN(CC(=O)O)CCN(CC(=O)O)CCN(CC(=O)O)CC2)C(=O)N[C@@H](Cc2ccc(O)cc2)C(=O)N[C@H](Cc2c[nH]c3ccccc23)C(=O)N[C@@H](CCCCN)C(=O)N[C@@H]([C@@H](C)O)C(=O)N1)C(=O)O [[^212Pb]Pb-DOTATATE, metal not drawn, reference compound]
- tissue uptake at 4 h ([2]; 444 kBq, 4 h after injection, i.v., AR42J tumor, read-out: average tumor uptake): ~10 %ID/g
- Tumor AUC / Kidney AUC ratio (T/K AUC ratio) ([1]; decay corrected to time of collection): 0.73
- AR42J tumor AUC [1, 4]: 122 ± 12
- Kidney AUC [1, 4]: 161 ± 21
- biodistribution profile / accumulation in healthy tissues ([1]; tumor-bearing female mice): distinctly cleaner
- RCY [3]: 98.3% ± 1.2%

Compound: C[C@@H](O)[C@H](NC(=O)[C@@H]1CSSC[C@H](NC(=O)[C@@H](Cc2ccccc2)NC(=O)CCOCCOCCNC(=O)CN2CCN(CC(=O)O)CCN(CC(N)=O)CCN(CC(=O)O)CC2)C(=O)N[C@@H](Cc2ccc(O)cc2)C(=O)N[C@H](Cc2c[nH]c3ccccc23)C(=O)N[C@@H](CCCCN)C(=O)N[C@@H]([C@@H](C)O)C(=O)N1)C(=O)O [[^212Pb]Pb-PSC-PEG2-TATE, PSC-amino-PEG2-acid-D-Phe-cyclo(Cys-Tyr-D-Trp-Lys-Thr-Cys)Thr-COOH, metal not drawn]
- AR42J tumor AUC ([1]; mouse, in vivo): 274 ± 59
- Kidney AUC ([1]; mouse, in vivo): 290 ± 27

Compound: C[C@@H](O)[C@H](NC(=O)[C@@H]1CSSC[C@H](NC(=O)[C@@H](Cc2ccccc2)NC(=O)CN2CCN(CC(=O)O)CCN(CC(N)=O)CCN(CC(=O)O)CC2)C(=O)N[C@@H](Cc2ccc(O)cc2)C(=O)N[C@H](Cc2c[nH]c3ccccc23)C(=O)N[C@@H](CCCCN)C(=O)N[C@@H]([C@@H](C)O)C(=O)N1)C(=O)O [[^212Pb]Pb-PSC-TATE, PSC-D-Phe-cyclo(Cys-Tyr-D-Trp-Lys-Thr-Cys)Thr-COOH, metal not drawn]
- AR42J tumor AUC ([1]; mouse, in vivo): 177 ± 22
- Kidney AUC ([1]; mouse, in vivo): 156 ± 24

Compound: C[C@@H](O)[C@@H]1NC(=O)[C@H](CCCCN)NC(=O)[C@@H](Cc2c[nH]c3ccccc23)NC(=O)[C@H](Cc2ccc(O)cc2)NC(=O)[C@@H](NC(=O)[C@@H](Cc2ccccc2)NC(=O)CCOCCOCCNC(=O)CN2CCN(CC(=O)O)CCN(CC(N)=O)CCN(CC(=O)O)CC2)CSSC[C@@H](C(=O)N[C@H](CO)[C@@H](C)O)NC1=O [^212Pb-PSC-PEG2-TOC, PSC-amino-PEG2-acid-D-Phe-cyclo(Cys-Tyr-D-Trp-Lys-Thr-Cys)Thr-OH, metal not drawn, reference compound]
- AR42J tumor AUC ([1]; mouse, in vivo): 290 ± 45
- Kidney AUC ([1]; mouse, in vivo): 320 ± 51

Compound: C[C@@H](O)[C@@H]1NC(=O)[C@H](CCCCN)NC(=O)[C@@H](Cc2c[nH]c3ccccc23)NC(=O)[C@H](Cc2ccc(O)cc2)NC(=O)[C@@H](NC(=O)[C@@H](Cc2ccccc2)NC(=O)CN2CCN(CC(=O)O)CCN(CC(N)=O)CCN(CC(=O)O)CC2)CSSC[C@@H](C(=O)N[C@H](CO)[C@@H](C)O)NC1=O [^212Pb-PSC-TOC, PSC-D-Phe-cyclo(Cys-Tyr-D-Trp-Lys-Thr-Cys)Thr-OH, metal not drawn]
- AR42J tumor AUC ([1]; mouse, in vivo): 353 ± 52
- Kidney AUC ([1]; mouse, in vivo): 377 ± 34

Compound: octreotate
- binding to SSTR2 relative to TOC (SSTR2): approximately 10 fold
- affinity for somatostatin receptor 3 (somatostatin receptor 3): minimal binding
- affinity for somatostatin receptor 5 (somatostatin receptor 5): moderate affinity

Compound: octreotide [TOC]
- affinity for SSTR2 (SSTR2): high affinity
- affinity for somatostatin receptor 3 (somatostatin receptor 3): high affinity
- affinity for somatostatin receptor 5 (somatostatin receptor 5): high affinity
